Experiment in all cases: indirect ELISA, VLP coated at 2 µg/mL, antibody 10 ng/mL, HRP goat anti-rabbit Fc
Assay [1] deals with T1, HPV58 VLP protein (human papillomavirus type 58, UniProt P26535 27-499).
T1 construct: Complete VLP protein; no limits of the construct printed, whole entry named; also called P58SHELL
T1 sequence: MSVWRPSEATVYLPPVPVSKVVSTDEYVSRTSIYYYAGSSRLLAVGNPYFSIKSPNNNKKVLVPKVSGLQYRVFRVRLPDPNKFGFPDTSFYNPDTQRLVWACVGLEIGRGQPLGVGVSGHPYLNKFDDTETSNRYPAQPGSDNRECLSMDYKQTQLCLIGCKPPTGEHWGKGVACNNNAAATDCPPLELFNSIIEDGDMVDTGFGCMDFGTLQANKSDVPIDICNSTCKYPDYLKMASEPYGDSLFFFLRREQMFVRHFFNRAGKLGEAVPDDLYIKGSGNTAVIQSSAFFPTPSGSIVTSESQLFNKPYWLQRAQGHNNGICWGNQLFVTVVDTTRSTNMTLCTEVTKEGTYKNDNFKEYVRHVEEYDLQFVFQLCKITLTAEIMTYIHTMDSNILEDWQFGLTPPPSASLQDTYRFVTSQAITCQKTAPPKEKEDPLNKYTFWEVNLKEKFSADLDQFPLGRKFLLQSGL

Assay [2] addresses T2, HPV52 VLP protein (human papillomavirus type 52, UniProt Q05138 27-504).
T2 construct: Complete VLP protein; no limits of the construct printed, whole entry named; also called P52SHELL
T2 sequence: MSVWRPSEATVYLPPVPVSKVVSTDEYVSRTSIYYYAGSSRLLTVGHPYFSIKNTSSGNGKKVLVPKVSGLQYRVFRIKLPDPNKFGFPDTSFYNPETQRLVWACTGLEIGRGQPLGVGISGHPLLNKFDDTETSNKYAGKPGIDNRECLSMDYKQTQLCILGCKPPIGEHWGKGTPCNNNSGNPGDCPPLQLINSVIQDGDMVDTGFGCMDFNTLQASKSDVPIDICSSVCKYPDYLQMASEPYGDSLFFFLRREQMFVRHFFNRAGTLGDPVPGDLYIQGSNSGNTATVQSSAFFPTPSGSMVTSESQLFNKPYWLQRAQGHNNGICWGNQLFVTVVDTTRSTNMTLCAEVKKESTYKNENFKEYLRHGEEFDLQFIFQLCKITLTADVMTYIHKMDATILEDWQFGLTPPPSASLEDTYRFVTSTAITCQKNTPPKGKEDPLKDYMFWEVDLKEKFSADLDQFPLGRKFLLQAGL

The target in assay [3] is T3, HPV6 VLP protein (human papillomavirus type 6 (C-terminal …, UniProt P69898 1-469)).
T3 construct: Virus-like particle self-assembled from the L1 chain, expressed in an insect cell system; also called HPV6 L1; HPV6L1(1-469Y)+HPV33L1(474K-499K)
T3 sequence: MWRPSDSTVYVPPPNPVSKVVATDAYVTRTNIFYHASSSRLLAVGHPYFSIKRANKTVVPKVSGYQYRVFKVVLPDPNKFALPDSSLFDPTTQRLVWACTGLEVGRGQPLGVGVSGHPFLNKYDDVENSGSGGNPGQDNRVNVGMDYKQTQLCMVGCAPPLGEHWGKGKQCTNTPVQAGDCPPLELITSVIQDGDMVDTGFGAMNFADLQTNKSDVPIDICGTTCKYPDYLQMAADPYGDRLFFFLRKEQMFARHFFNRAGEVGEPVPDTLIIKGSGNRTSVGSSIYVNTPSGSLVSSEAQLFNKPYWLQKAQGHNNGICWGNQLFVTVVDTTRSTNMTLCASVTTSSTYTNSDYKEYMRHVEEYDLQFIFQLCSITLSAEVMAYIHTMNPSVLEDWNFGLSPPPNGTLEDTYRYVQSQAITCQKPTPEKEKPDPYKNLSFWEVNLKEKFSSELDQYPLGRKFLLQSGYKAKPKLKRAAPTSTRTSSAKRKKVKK

Assay [4] addresses T4, HPV31 VLP protein (human papillomavirus type 31; human …, UniProt P17388 1-475; P06416 474-499).
T4 construct: range 1-475;range 474-499; Complete VLP protein used as coating protein; also called P31SHELL(1-475Y)+HPV33L1(474K-499K)
T4 sequence: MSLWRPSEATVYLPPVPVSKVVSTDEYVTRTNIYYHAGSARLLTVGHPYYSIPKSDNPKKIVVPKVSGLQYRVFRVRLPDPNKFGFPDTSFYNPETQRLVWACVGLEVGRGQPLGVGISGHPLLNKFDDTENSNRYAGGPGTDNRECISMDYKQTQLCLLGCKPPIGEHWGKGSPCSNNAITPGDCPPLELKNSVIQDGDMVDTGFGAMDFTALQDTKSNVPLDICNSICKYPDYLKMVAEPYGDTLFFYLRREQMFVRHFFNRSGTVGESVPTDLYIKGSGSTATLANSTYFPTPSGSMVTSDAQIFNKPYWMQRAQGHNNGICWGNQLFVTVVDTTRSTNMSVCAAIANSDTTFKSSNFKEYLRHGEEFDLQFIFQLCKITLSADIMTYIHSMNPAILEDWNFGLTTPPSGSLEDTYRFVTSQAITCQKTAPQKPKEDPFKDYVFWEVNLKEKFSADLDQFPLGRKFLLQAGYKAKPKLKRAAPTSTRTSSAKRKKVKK

Assay [5] deals with T5, HPV51 VLP protein (human papillomavirus type 51, UniProt P26536 1-474).
T5 construct: Complete VLP protein; no limits of the construct printed, whole entry named; also called HPV51L1
T5 sequence: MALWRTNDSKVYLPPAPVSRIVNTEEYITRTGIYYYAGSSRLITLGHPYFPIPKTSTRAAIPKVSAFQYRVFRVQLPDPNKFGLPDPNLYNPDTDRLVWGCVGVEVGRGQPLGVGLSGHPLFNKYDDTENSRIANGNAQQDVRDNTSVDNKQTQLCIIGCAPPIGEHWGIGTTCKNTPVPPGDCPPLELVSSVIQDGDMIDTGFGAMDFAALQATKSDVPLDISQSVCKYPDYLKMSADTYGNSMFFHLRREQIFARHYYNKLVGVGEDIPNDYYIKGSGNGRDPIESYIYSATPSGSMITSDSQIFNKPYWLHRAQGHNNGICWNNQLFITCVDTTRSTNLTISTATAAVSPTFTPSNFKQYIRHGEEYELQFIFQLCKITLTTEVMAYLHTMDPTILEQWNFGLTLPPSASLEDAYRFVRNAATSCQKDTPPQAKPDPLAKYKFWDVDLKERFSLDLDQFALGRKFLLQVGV

B1: monoclonal antibody HPV6-R003 (antibody, V domains shown)
VH: QQQLEESGGGLVKPGGTLTLTCKASGIDLSNYYMCWVRQAPGKGLEWIGCIYTGSGRTYYASWAKGRFTISKASSTTVTLQMTSLTAADTATYFCARDYLGWRASNIWGPGTLVTVSS
VL: ELVMTQTPSSVSAAVGGTVTINCQASQSVYSNNLVWYQQKPGQPPKLLIYGASTLASGVPSRFKGSGSGTQFTLTISDVVCDDAATYYCGGYVSDSTDGTAFGGGTEVVVKG
notes: here built from variable plus constant region so that the signal peptides are left out; In the sandwich ELISA the same antibody is used as coating antibody and, labelled with horseradish peroxidase, as detection antibody; also called anti-HPV6 L1 protein antibody
B1: the OD450-blank in assay [1] was determined as 0.044 OD450; in assay [2], 0.044 OD450; in assay [3], 2.42 OD450; in assay [4], 0.047 OD450; in assay [5], 0.041 OD450.

The values are drawn from patent publication US20240158474A1 (SINO BIOLOGICAL, published 2024).
